Literature values in patent US11407822B2, “Treatment of fibrodysplasia ossificans progressiva” (REGENERON PHARMACEUTICALS, INC., priority 2014, dated 2022).

Columns and labels:
[1] = biological target: T1, Activin A binding to ACVR2A or ACVR2B (Homo sapiens, UniProt P08476); details: as described for the antibody in US2015/0037339 or U.S. Pat. No. 8,309,082
T1 sequence (P08476 311-426): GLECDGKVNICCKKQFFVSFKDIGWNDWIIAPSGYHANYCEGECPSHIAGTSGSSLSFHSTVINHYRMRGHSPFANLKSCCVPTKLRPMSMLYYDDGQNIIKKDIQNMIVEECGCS

[2] = tested on: Activin A mediated signaling through ACVR2A and/or ACVR2B; details: as described for the antibody in US2015/0037339 or U.S. Pat. No. 8,309,082

B1: H4H10430P: Antibody against Activin A designated H4H10430P in US2015037339; heavy and light chain variable regions present SEQ ID NOs:9 and 13 (antibody, V domains shown)
VH: EVQLVESGGGLVQPGRSLRLSCKASGFAFDDFAMHWVRQAPGKGLEWVSGIVWNSGDIGYADSVKGRFTISRDNAKNSLYLQLNSLRTEDTALYFCVKDMVRGLMGFNYYGMDVWGQGTTVTVSS
VL: EIVLTQSPATLSLSPGERATLSCRASQTISTYLVWYRQRPGQAPSLLIYDASNRATDIPARFSGSGSGTDFTLTISSLEPEDFAVYYCQQRSNWPITFGQGTRLEIK
- inhibition of Activin A binding to ACVR2A and/or ACVR2B [1]: inhibits binding of Activin A to ACVRV2A and/or ACVR2B
- inhibition of Activin A signal transduction through ACVR2A and/or ACVR2B [2]: inhibits signal transduction through one or both of these receptors
